The values that follow come from patent US20030007981A1 (UNIVERSITY OF SASKATCHEWAN, published 2003).

The test deals with biotinylated bovine transferrin (bovine, UniProt Q29443 20-704, biotinylated (sites not given)). Nature of the test: affinity chromatography: H. somnus total membranes mixed with biotinylated bovine transferrin, captured on streptavidin-agarose.
biotinylated bovine transferrin, sequence (Q29443 20-704 limits assumed): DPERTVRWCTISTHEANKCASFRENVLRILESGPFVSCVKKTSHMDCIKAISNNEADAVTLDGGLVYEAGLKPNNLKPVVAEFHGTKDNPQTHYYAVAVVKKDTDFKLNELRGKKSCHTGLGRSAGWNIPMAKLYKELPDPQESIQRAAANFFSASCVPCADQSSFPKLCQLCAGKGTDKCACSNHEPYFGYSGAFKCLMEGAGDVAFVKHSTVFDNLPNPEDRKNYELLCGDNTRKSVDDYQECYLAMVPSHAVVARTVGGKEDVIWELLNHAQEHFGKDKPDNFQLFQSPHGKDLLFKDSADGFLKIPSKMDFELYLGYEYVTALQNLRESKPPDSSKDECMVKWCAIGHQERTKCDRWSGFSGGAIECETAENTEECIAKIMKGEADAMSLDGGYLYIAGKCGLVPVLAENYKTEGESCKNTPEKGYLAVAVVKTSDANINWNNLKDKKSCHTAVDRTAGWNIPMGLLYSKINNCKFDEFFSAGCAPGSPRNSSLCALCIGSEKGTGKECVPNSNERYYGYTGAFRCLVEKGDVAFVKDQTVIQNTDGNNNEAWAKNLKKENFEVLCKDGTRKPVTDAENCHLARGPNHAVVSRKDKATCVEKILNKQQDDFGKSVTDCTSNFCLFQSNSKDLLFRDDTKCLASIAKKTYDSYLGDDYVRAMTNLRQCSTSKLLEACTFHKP

B1: H. somnus transferrin-binding protein 2 (native, from strain HS25) (receptor)
chain: CSSGKGGFDLDDVEHTPPSSSGSSRPTYQDVPTGQRQQEIVEEINSPALGYATEIPRRNISPMPTTGTKESNARVAITAQQVAPLSMPFNSIKEDFIKRLIAENTKKNARGRDVKYFDDTDDVLFAHDGSNLAHKRDLQYVRVGYVLGTRKIELVFSHDKKTRDQFPAGWVGYVFYQGTSPAVTLPTQTVTYKGYWDFVSDAFNERTLAEDFTQENSSATSNIPGNQIGATSMDALVNRKVSGEKINIAHSAEFTADFGSKKLSGELKSNGYVSRIENEQQDVKTRYKIDADIKGNRFVGSATAQEKSHTIFGKDADKRLEGGFFGPKAEELAGKFLTDDNSLFVVFGAKRESKGDEKLETRFDAVKISTDSNKLEKETMDTFGNAAYLVLDGRQFPLVPESNAGTTGAGNTGKNEFISTIDGSHLNKTNHENHKKYKVTVCCSNLVYVKFGSYGEQTTANDASNSTAGAATTHNSTLTNGHLFLTGERTSLTDMAKQSGAAKYIGTWQANFLSSKGQVGSVDAGDPRNDSGKSRAEFDVNFGGKTVTGKFFDADGIQPALTMDSTKIEGNGFSGTAKTTGSLQLDKGSTGAGITVTFTDAKVDGAFYGPNAEEIGGTITSNGTGDKVGGVFGAKRQELSQQK
modifications: lipid modification (lipoprotein; residue not stated)
notes: The signal peptide (residues 1-19) is stated; also called Tbp2; protein with relative molecular weight of 80,000
In the case of B1, the binding result is “binds”.

B2: H. somnus transferrin-binding protein 1 (native, from strain HS25) (receptor)
chain: DTESPSSNTEAVLELEAIQVQAKHEISRHDNEVTGLGKVVKSSEDIDKELILNIRDLTRYDPGISVVEQGRGATSGYAMRGVDRNRVAMLVDGLGQAQSYSTLKSDANGGAINEIEYENIKSIELSKGSSSAEYGSGALGGAVGFRTKEADDVIKEGQNWGLNSKTAYSSKNSQFTQSVAGAFRVGGFDSLAIFTHRKGKETRVHPAAEEIQHTYQPLEGYFNRYEVDQNRNGKPVLANAYYILADECSNLSDPSCRHAKAKTNRVGAPENNPNWTPEEQAQAAKMPYPTRTASAKDYTGPDRISPNPMDYQSHSFFWKGGYRLSPNHYVGGVLEHTKQRYDIRDMTQRAYYTKEDICHSGSSCQTLDKNETDKGNFGITLTDNPLDGLVYDAGNQARGVRYGRGKFFNERHTKNRSGIFYRYENPDKNSWPDSLTLSIDRQDLKLSSRIHWTYCTDYPHVARCRASLDKPWSNYRTEKNDYQERLNLGQFNWEKTFNLGFTTHKVNIAAGFGTHRSTLQHGDLYAEYVTLPPYTEEKVYGEDNKVKQNPTAEEKEKLQYGNGSYDKPRVYRRKNTPELKTVNGCNETAGDNRDCSPRVITGRQYYLALRNHIAFGEWADLGLGVRYDNHTFRSNDPWTKGGNYHNWSWNAGVSLKPTRHFVVSYRVSSGFRVPAFYELYGVRTGASGKDNPLTQKEFLSRKPLKSEKAFNQEIGLAVQGDFGVIETSFFQNNYKNLLARADKYVEGLGYVTDFYNTQDVKLNGINILGRIYWEGISDRLPEGLYSTLAYNRINIKARKLHDNFTNVSEPTLEAVQPGRIIASIGYDDPEGRWGLNLSGTYSQAKQRDEVVGEKVFGKGGSIKRTINSKRTRAWYIYDLTAYYTWKEKFTLRAGIYNLTNRKYSTWESVRQSAANAVNQDLGTRSARFAARGRNFTVSMEMKF
notes: also called Tbp1; native H. somnus Tbp1
As for B2, the binding result was “binds”.
